In data set [1] the target is T1, Streptomyces coelicolor RNA polymerase α subunit (S. coelicolor, UniProt P60312 1-340).
T1 construct: RNA polymerase subunit alpha, S. coelicolor; Stood in the assay as a subunit of the RNAP core in the holoenzyme; density for one αCTD is seen; also called αCTD (C-terminal domain of the α subunit); source: S. coelicolor RNAP purified as described previously [37]
T1 sequence: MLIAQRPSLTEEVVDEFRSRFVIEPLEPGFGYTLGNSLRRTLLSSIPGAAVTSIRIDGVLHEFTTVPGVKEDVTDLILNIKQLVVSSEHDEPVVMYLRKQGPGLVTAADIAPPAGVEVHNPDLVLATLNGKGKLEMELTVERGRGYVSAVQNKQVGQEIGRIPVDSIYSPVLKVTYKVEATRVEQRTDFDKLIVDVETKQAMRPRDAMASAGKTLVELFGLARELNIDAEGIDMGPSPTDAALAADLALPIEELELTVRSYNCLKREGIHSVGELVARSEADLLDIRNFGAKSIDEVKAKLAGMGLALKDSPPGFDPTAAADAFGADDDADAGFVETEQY
Briefly: cryo-EM structure; SARP-TIC: 32 uM SARP preincubated with 5 uM afsS promoter DNA scaffold, mixed with 4 uM RNAP core, 16 uM σ^HrdB, 16 uM CarD, 32 uM RbpA; 25°C; 20 mM Tris-HCl pH 8.0, 50 mM KCl, 5 mM MgCl2, 3 mM DTT; Superose 6; nominal resolution 3.35 Å, SARP region 3.77 Å. The conditions noted are these: both partners purified.

Data set [2] concerns the target T2, Streptomyces coelicolor RNA polymerase β subunit (S. coelicolor, UniProt Q9L0L0 1-1161).
T2 construct: RNA polymerase subunit beta, S. coelicolor; Stood in the assay as a subunit of the RNAP core in the holoenzyme; also called RNAP β; β flap; source: S. coelicolor RNAP purified as described previously [37]
Described as above. Particulars: both partners purified.

Data set [3] deals with T3, Streptomyces coelicolor RNA polymerase β′ subunit (S. coelicolor, UniProt Q8CJT1 1-1299).
T3 construct: RNA polymerase subunit beta', S. coelicolor; Stood in the assay as a subunit of the RNAP core in the holoenzyme; also called RNAP β′; β′ ZBD; source: S. coelicolor RNAP purified as described previously [37]
The data set is described as above. Particulars: both partners purified.

The target in data set [4] is T4, Streptomyces coelicolor RNA polymerase sigma factor σ^HrdB (S. coelicolor, UniProt P18183 1-511).
T4 construct: principal sigma factor HrdB, S. coelicolor; region 1.1 disordered in the map; Stood in the assay as part of the RNAP σ^HrdB-holoenzyme; also called σ subunit; σ R4 (region 4); source: purified as described previously [37]
T4 sequence: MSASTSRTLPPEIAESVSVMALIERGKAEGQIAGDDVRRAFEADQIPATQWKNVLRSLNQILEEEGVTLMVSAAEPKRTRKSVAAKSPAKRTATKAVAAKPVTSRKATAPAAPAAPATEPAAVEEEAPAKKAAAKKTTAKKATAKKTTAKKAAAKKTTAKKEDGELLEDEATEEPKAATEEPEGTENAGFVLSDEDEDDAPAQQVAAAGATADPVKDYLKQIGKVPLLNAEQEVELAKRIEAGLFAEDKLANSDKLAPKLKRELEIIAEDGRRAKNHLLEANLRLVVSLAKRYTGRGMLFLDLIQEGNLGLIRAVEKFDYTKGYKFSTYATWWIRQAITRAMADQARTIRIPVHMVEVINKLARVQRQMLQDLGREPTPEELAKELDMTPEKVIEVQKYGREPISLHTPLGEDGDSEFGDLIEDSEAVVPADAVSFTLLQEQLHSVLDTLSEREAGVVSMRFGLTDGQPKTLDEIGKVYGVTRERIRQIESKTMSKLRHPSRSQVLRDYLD
The data set is described as above. The conditions noted are these: both partners purified.

The target in data set [5] is SARP domain of Streptomyces coelicolor AfsR (residues 1 to 270) (S. coelicolor) (UniProt P25941). The description is as above.
The target of the next data set is T5, AfsR 4E (Streptomyces coelicolor M145, UniProt P25941 1-993, S391E;T337E;T506E;S953E).
T5 sequence: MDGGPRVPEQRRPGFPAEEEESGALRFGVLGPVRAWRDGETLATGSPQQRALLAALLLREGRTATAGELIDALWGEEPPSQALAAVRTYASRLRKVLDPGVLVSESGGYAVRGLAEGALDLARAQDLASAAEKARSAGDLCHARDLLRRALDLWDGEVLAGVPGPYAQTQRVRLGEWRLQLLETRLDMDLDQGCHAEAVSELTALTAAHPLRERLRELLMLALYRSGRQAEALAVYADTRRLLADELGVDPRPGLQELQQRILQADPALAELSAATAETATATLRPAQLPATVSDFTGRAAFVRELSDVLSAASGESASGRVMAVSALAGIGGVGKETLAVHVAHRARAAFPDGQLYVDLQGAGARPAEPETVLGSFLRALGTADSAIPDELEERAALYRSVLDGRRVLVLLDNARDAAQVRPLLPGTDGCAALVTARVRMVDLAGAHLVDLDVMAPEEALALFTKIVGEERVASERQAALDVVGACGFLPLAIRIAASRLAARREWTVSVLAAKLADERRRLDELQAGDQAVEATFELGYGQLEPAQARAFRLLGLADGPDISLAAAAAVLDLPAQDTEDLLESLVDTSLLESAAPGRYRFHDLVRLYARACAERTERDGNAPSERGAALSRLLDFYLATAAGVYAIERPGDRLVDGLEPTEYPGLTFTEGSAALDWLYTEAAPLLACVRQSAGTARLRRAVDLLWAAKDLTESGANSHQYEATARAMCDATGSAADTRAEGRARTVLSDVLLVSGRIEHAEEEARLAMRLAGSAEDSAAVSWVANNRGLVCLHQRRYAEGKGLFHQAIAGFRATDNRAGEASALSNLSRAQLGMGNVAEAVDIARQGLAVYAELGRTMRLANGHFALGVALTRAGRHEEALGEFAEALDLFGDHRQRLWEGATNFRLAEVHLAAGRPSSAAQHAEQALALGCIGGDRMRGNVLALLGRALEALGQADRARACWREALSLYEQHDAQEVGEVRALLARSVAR
Briefly: fluorescence polarization; stronger than dephosphorylated AfsR; FP: 20 mM HEPES pH 7.5, 100 mM NaCl, 5 mM MgCl2, 2 mM DTT, 5% glycerol, 0.1 ug/ml poly(dI-dC), 10 nM DNA, 30 C, 20 min. The conditions noted are these: protein: recombinant; tags: pET28a His tag (Ni-NTA); chain copies: 2; label: 5'-FAM; blunt.

A further data set addresses T6, AfsR, dephosphorylated (Streptomyces coelicolor M145, UniProt P25941 1-993).
T6 sequence: T5 sequence with E337T, E391S, E506T, E953S
The data set can be described thus: fluorescence polarization; preincubated with ATP; DNA binding unchanged; FP: 20 mM HEPES pH 7.5, 100 mM NaCl, 5 mM MgCl2, 2 mM DTT, 5% glycerol, 0.1 ug/ml poly(dI-dC), 10 nM DNA, 30 C, 20 min. The conditions noted are these: protein: recombinant; tags: pET28a His tag (Ni-NTA); chain copies: 2; label: 5'-FAM; blunt.

The next data set has as its target T7, AfsR SARP domain (Streptomyces coelicolor M145, UniProt P25941 1-270).
T7 sequence: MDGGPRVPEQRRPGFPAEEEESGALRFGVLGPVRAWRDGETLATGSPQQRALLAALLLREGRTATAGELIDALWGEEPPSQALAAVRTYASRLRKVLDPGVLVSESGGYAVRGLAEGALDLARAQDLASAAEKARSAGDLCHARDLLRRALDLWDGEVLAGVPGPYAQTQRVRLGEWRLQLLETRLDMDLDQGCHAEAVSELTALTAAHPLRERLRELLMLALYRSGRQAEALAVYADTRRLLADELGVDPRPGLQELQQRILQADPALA
Briefly: fluorescence polarization; 5 mM Mg2+; poly(dI-dC); FP: 20 mM HEPES pH 7.5, 100 mM NaCl, 5 mM MgCl2, 2 mM DTT, 5% glycerol, 0.1 ug/ml poly(dI-dC), 10 nM DNA, 30 C, 20 min. The conditions noted are these: protein: recombinant; tags: pET28a His tag (Ni-NTA); chain copies: 2; label: 5'-FAM; blunt.

Data set [6] deals with AfsR SARP domain;RNAP-sigmaHrdB holoenzyme;RbpA;CarD (Streptomyces coelicolor …, UniProt P25941;P60312;Q9L0L0;Q8CJT1;P18183;Q9KXS1;Q9RKY0;Q9L0Q9 …, |||). Briefly: cryo-EM; 3.35 A; open complex, 13-nt bubble; FP: 20 mM HEPES pH 7.5, 100 mM NaCl, 5 mM MgCl2, 2 mM DTT, 5% glycerol, 0.1 ug/ml poly(dI-dC), 10 nM DNA, 30 C, 20 min. Particulars: protein: recombinant;;recombinant;recombinant; tags: pET28a His tag (Ni-NTA);;pET28a His tag (Ni-NTA);pET28a His tag (Ni-NTA); chain copies: 2;2;1;1;1;1;1;1; 44 bp duplex, 6-nt mismatched bubble (-6 to -1), 15 bp duplex.

Positions count from the first letter of the chain named.

B1: SARP domain of Streptomyces coelicolor AfsR (residues 1 to 270) (domain or fragment, S. coelicolor, UniProt P25941 1-270, looked up)
chain: T7 sequence
notes: AfsR, S. coelicolor M145, SARP domain, residues 1 to 270 (Met1-Ala270); Two protomers (upstream and downstream) stand on the afs box DNA in SARP-TIC; also called isolated SARP domain; wild-type SARP; source: E. coli BL21(DE3), purified (nickel-NTA, SEC Superdex 200)
The term stoichiometry N denotes a count of units in the complex or per binding partner. With B1, the binding result in [1], in data set [2], in [3] and in data set [4] was “binds” each time. In data set [5], this molecule displayed a stoichiometry N of 2.

B2: afs box (-45 to -14) (dsDNA)
DNA 1: CGGAGCGTTCAGCGTTCGTTTATCTCCCCCTG
DNA 2: CAGGGGGAGATAAACGAACGCTGAACGCTCCG
On to B2, for which the binding result in the data set with AfsR 4E is “binds”; with AfsR, dephosphorylated it was “binds”; in the data set with AfsR SARP domain it was “binds”.

B3: afsS promoter scaffold -50 to +15, 6-nt bubble (dsDNA)
DNA 1: GTAGCCGGAGCGTTCAGCGTTCGTTTATCTCCCCCTGGCACTGTCATCTCCGTCAGACCGTCGCA
DNA 2: TGCGACGGTCTGACGCTCTACACAGTGCCAGGGGGAGATAAACGAACGCTGAACGCTCCGGCTAC
For B3, the binding result in [6] is on record as “binds”.

Source of the values: paper PMC10936776, “Structural and functional characterization of AfsR, an SARP family transcriptional activator of antibiotic biosynthesis in Streptomyces” (PLOS Biology, 2024).
